What was measured:
[1] = target: ASB7 with Trp118 in ANK3 or Phe82 in ANK4 replaced with alanine; assay: ITC; peptide (0.8–4 mM) titrated into the ASB7 complex (39–156 µM); 16 °C; 20 mM Tris-HCl pH 7.5, 150 mM NaCl; MicroCal PEAQ-ITC
[2] = target: ASB7 Arg185-to-alanine mutant in complex with Elongin B/C (human) (UniProt Q9H672); assay: as above
[3] = target: ASB7 Phe182 alanine mutant in complex with Elongin B/C (human) (UniProt Q9H672); assay: as above
[4] = target: ASB7 D116A mutant in complex with Elongin B/C (human) (UniProt Q9H672); assay: as above
[5] = target: ASB7 R160A mutant in complex with Elongin B/C (human) (UniProt Q9H672); assay: as above
[6] = target: ASB7-Elongin B-Elongin C ternary complex (wild-type ASB7, residues 11-318) (human) (UniProt Q9H672); assay: ITC; peptide in the syringe titrated into ASB7-Elongin B/C in the cell; MicroCal PEAQ-ITC, 16 °C, 20 mM Tris-HCl pH 7.5, 150 mM NaCl; 39–156 μM protein, 0.8–4 mM peptide; repeated three times, mean ± SD

| fold decrease in binding affinity against wild-type ASB7 [1] [fold] | fold decrease in binding affinity against wild-type ASB7 [2] [fold] | fold decrease in binding affinity against wild-type ASB7 [3] [fold] | fold reduction in binding against wild-type ASB7 [4] [fold] | fold decrease in binding affinity against wild-type ASB7 [5] [fold] | Kd [6] [nM] | stoichiometry N [6] | Substance |
| --- | --- | --- | --- | --- | --- | --- | --- |
| 10 to 30 | 4 | 3 | 7 | 3 |  |  | LZTS1-degron 23-residue peptide |
|  |  |  |  |  | 600 | 0.75 | LZTS1 degron peptide, 22 residues (…) |

Source: publication PMC11263391, “Molecular insights into degron recognition by CRL5^ASB7 ubiquitin ligase” (Nature Communications, 2024)
